Test results: patent publication US20130209454A1
Residue numbers refer to the chain shown, from its start. Numbers in names are those of the source.

How the values were obtained:
Assay in all cases: cell-based or functional assay
[1] = target: HIV-1 Env of strain 0330.v4.c3 (HIV-1)
[2] = target: HIV-1 Env of strain 231965.c01 (HIV-1)
[3] = target: HIV-1 Env of strain 231966.c02 (HIV-1)
[4] = target: HIV-1 Env of strain 3103.v3.c10 (HIV-1)
[5] = target: HIV-1 Env of strain 3301.v1.c24 (HIV-1)
[6] = target: HIV-1 Env of strain 620345.c01 (HIV-1)
[7] = target: HIV-1 Env of strain 6540.v4.cl (HIV-1)
[8] = target: HIV-1 Env of strain 89-F1_2_25 (HIV-1)
[9] = target: HIV-1 Env of strain AC10.0.29 (HIV-1)
[10] = target: HIV-1 Env of strain CAP45.2.00.G3 (HIV-1)
[11] = target: HIV-1 Env of strain CNE17 (HIV-1)
[12] = target: HIV-1 Env of strain CNE21 (HIV-1)
[13] = target: HIV-1 Env of strain CNE53 (HIV-1)
[14] = target: HIV-1 Env of strain Ce0393_C3 (HIV-1)
[15] = target: HIV-1 Env of strain Ce703010054_2A2 (HIV-1)
[16] = target: HIV-1 Env of strain Du422.1 (HIV-1)
[17] = target: HIV-1 Env of strain P1981_C5_3 (HIV-1)
[18] = target: HIV-1 Env of strain Q23.17 (HIV-1)
[19] = target: HIV-1 Env of strain QH0692.42 (HIV-1)
[20] = target: HIV-1 Env of strain R1166.c01 (HIV-1)
[21] = target: HIV-1 Env of strain R2184.c04 (HIV-1)
[22] = target: HIV-1 Env of strain T250-4 (HIV-1)
[23] = target: HIV-1 Env of strain THRO4156.18 (HIV-1)
[24] = target: HIV-1 Env of strain TROJO4551.58 (HIV-1)
[25] = target: HIV-1 Env of strain X1193_c1 (HIV-1)
[26] = target: HIV-1 Env of strain X2131_C1_B5 (HIV-1)
[27] = target: HIV-1 strain 0330.v4.c3 envelope (gp120) (HIV-1)
[28] = target: HIV-1 strain 0815.v3.c3 envelope (gp120) (HIV-1)
[29] = target: HIV-1 strain 1056_10_TA11_1826 envelope (gp120) (HIV-1)
[30] = target: HIV-1 strain 231965.c01 envelope (gp120) (HIV-1)
[31] = target: HIV-1 strain 3301.v1.c24 envelope (gp120) (HIV-1)
[32] = target: HIV-1 strain 3718.v3.c11 envelope (gp120) (HIV-1)
[33] = target: HIV-1 strain 620345.c01 envelope (gp120) (HIV-1)
[34] = target: HIV-1 strain 62357_14_D3_4589 envelope (gp120) (HIV-1)
[35] = target: HIV-1 strain 6480.v4.c25 envelope (gp120) (HIV-1)
[36] = target: HIV-1 strain 6535.3 envelope (gp120) (HIV-1)
[37] = target: HIV-1 strain 6545.v4.c1 envelope (gp120) (HIV-1)
[38] = target: HIV-1 strain 6811.v7.c18 envelope (gp120) (HIV-1)
[39] = target: HIV-1 strain 89-F1_2_25 envelope (gp120) (HIV-1)
[40] = target: HIV-1 strain 928-28 envelope (gp120) (HIV-1)
[41] = target: HIV-1 strain C3347.c11 envelope (gp120) (HIV-1)
[42] = target: HIV-1 strain CNE17 envelope (gp120) (HIV-1)
[43] = target: HIV-1 strain Q23.17 envelope (gp120) (HIV-1)
[44] = target: HIV-1 strain Q259.d2.17 envelope (gp120) (HIV-1)
[45] = target: HIV-1 strain R2184.04 envelope (gp120) (HIV-1)
[46] = target: HIV-1 strain T257-31 envelope (gp120) (HIV-1)
[47] = target: HIV-1 strain THRO4156.18 envelope (gp120) (HIV-1)
[48] = target: HIV-1 strain TRJO4551.58 envelope (gp120) (HIV-1)
[49] = target: HIV-1 strain TRO.11 envelope (gp120) (HIV-1)
[50] = target: HIV-1 strain ZM247v1(Rev-) envelope (gp120) (HIV-1)

B1: NIH45-46^G54Y IgG (antibody, name in Kabat numbering, V domains shown)
VH: QVRLSQSGGQMKKPGESMRLSCRASGYEFLNCPINWIRLAPGRRPEWMGWLKPRYGAVNYARKFQGRVTMTRDVYSDTAFLELRSLTSDDTAVYFCTRGKYCTARDYYNWDFEHWGRGAPVTVSS
VL: EIVLTQSPATLSLSPGETAIISCRTSQSGSLAWYQQRPGQAPRLVIYSGSTRAAGIPDRFSGSRWGADYNLSISNLESGDFGVYYCQQYEFFGQGTKVQVDI
neutralization IC50 [1]: 0.03 µg/mL
neutralization IC50 [2]: 0.025 µg/mL
neutralization IC50 [3]: 0.06 µg/mL
neutralization IC50 [4]: 0.3 µg/mL
neutralization IC50 [5]: 0.003 µg/mL
neutralization IC50 [6]: > 50 µg/mL
neutralization IC50 [7]: > 50 µg/mL
neutralization IC50 [8]: > 50 µg/mL
neutralization IC50 [9]: 0.19 µg/mL
neutralization IC50 [10]: > 50 µg/mL
neutralization IC50 [11]: 0.073 µg/mL
neutralization IC50 [12]: 0.07 µg/mL
neutralization IC50 [13]: 0.006 µg/mL
neutralization IC50 [14]: 0.036 µg/mL
neutralization IC50 [15]: 0.022 µg/mL
neutralization IC50 [16]: > 50 µg/mL
neutralization IC50 [17]: 0.04 µg/mL
neutralization IC50 [18]: 0.02 µg/mL
neutralization IC50 [19]: 0.52 µg/mL
neutralization IC50 [20]: 0.24 µg/mL
neutralization IC50 [21]: 0.015 µg/mL
neutralization IC50 [22]: > 50 µg/mL
neutralization IC50 [23]: 0.66 µg/mL
neutralization IC50 [24]: 0.03 µg/mL
neutralization IC50 [25]: 0.006 µg/mL
neutralization IC50 [26]: 0.1 µg/mL
neutralization IC80 [27]: 0.09 µg/mL
neutralization IC80 [28]: 0.015 µg/mL
neutralization IC80 [29]: 0.189 µg/mL
neutralization IC80 [30]: 0.054 µg/mL
neutralization IC80 [31]: 0.014 µg/mL
neutralization IC80 [32]: 3.85 µg/mL
neutralization IC80 [33]: > 50 µg/mL
neutralization IC80 [34]: 0.09 µg/mL
neutralization IC80 [35]: 0.051 µg/mL
neutralization IC80 [36]: 0.24 µg/mL
neutralization IC80 [37]: > 50 µg/mL
neutralization IC80 [38]: 0.059 µg/mL
neutralization IC80 [39]: > 50 µg/mL
neutralization IC80 [40]: 0.33 µg/mL
neutralization IC80 [41]: 0.052 µg/mL
neutralization IC80 [42]: 0.264 µg/mL
neutralization IC80 [43]: 0.06 µg/mL
neutralization IC80 [44]: 0.034 µg/mL
neutralization IC80 [45]: 0.045 µg/mL
neutralization IC80 [46]: 0.67 µg/mL
neutralization IC80 [47]: 2.14 µg/mL
neutralization IC80 [48]: 0.07 µg/mL
neutralization IC80 [49]: 0.22 µg/mL
neutralization IC80 [50]: 3.57 µg/mL

B2: NIH45-46^G54W IgG (antibody, name in Kabat numbering, V domains shown)
VH: B1 VH with Y55W
VL: B1 VL
neutralization IC50 [1]: 0.03 µg/mL
neutralization IC50 [2]: < 0.001 µg/mL
neutralization IC50 [3]: 0.02 µg/mL
neutralization IC50 [4]: 0.2 µg/mL
neutralization IC50 [5]: < 0.001 µg/mL
neutralization IC50 [6]: > 50 µg/mL
neutralization IC50 [7]: > 50 µg/mL
neutralization IC50 [8]: > 50 µg/mL
neutralization IC50 [9]: 0.13 µg/mL
neutralization IC50 [10]: 32.2 µg/mL
neutralization IC50 [11]: 0.036 µg/mL
neutralization IC50 [12]: 0.03 µg/mL
neutralization IC50 [13]: < 0.001 µg/mL
neutralization IC50 [14]: 0.013 µg/mL
neutralization IC50 [15]: 0.027 µg/mL
neutralization IC50 [16]: > 50 µg/mL
neutralization IC50 [17]: 0.02 µg/mL
neutralization IC50 [18]: 0.01 µg/mL
neutralization IC50 [19]: 0.37 µg/mL
neutralization IC50 [20]: 0.13 µg/mL
neutralization IC50 [21]: 0.005 µg/mL
neutralization IC50 [22]: 1.33 µg/mL
neutralization IC50 [23]: 0.54 µg/mL
neutralization IC50 [24]: 0.01 µg/mL
neutralization IC50 [25]: < 0.001 µg/mL
neutralization IC50 [26]: 0.05 µg/mL
neutralization IC80 [27]: 0.11 µg/mL
neutralization IC80 [28]: 0.003 µg/mL
neutralization IC80 [29]: 0.16 µg/mL
neutralization IC80 [30]: 0.035 µg/mL
neutralization IC80 [31]: 0.004 µg/mL
neutralization IC80 [32]: 0.04 µg/mL
neutralization IC80 [33]: > 50 µg/mL
neutralization IC80 [34]: 0.07 µg/mL
neutralization IC80 [35]: 0.021 µg/mL
neutralization IC80 [36]: 0.13 µg/mL
neutralization IC80 [37]: > 50 µg/mL
neutralization IC80 [38]: 0.033 µg/mL
neutralization IC80 [39]: > 50 µg/mL
neutralization IC80 [40]: 0.25 µg/mL
neutralization IC80 [41]: 0.028 µg/mL
neutralization IC80 [42]: 0.127 µg/mL
neutralization IC80 [43]: 0.03 µg/mL
neutralization IC80 [44]: 0.014 µg/mL
neutralization IC80 [45]: 0.036 µg/mL
neutralization IC80 [46]: 0.45 µg/mL
neutralization IC80 [47]: 1.81 µg/mL
neutralization IC80 [48]: 0.05 µg/mL
neutralization IC80 [49]: 0.13 µg/mL
neutralization IC80 [50]: 2.6 µg/mL
